Assay results taken from patent US20160368988A1 (MERUS N V, published 2016).

Tests used:
[1] = target: T1, human CD3, membrane-expressed (CD3/TCR complex on HPB-ALL cells or purified human T cells) (human, UniProt P07766 23-207; P04234 22-171; P09693 23-182); assay: flow cytometry on HPB-ALL cells
T1 construct: whole, on cells; On cells CD3 stands in the complex with the TCR and the zeta chain; also called cell surface expressed CD3/TCR complexes

[2] = target: T2, recombinant purified human CLEC12A (Sino Biological Inc, cat. Nr. 11896-H07H) (human, UniProt Q5QGZ9 65-265); assay: SPR (BIAcore T100), ratio of the two KD values
T2 construct: Bought protein; also called CLEC12A protein
T2 sequence (looked up): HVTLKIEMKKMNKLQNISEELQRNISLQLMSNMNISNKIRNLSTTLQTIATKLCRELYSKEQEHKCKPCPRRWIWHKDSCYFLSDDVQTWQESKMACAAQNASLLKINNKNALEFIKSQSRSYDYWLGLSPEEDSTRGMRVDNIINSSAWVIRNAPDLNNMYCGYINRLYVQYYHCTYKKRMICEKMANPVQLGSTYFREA

[3] = target: T2, recombinant purified human CLEC12A …; assay: SPR (BIAcore T100), bsAb captured by anti-human IgG on a CM5 chip, antigen in solution; average of three measurements
[4] = target: T1, human CD3, membrane-expressed (CD3/TCR …); assay: flow cytometry on CD3+ HPB-ALL cells [panel HPB-ALL]
[5] = target: T1, human CD3, membrane-expressed (CD3/TCR …); assay: flow cytometry on HPB-ALL cells [upper panel]
[6] = target: T1, human CD3, membrane-expressed (CD3/TCR …); assay: flow cytometry on HPB-ALL cells; remark: listed apart in the source
[7] = target: T1, human CD3, membrane-expressed (CD3/TCR …); assay: flow cytometry on HPB-ALL cells [lower panel]
[8] = target: T1, human CD3, membrane-expressed (CD3/TCR …); assay: flow cytometry on HPB-ALL cells [upper panel]; remark: listed apart in the source
[9] = target: T1, human CD3, membrane-expressed (CD3/TCR …); assay: flow cytometry on HPB-ALL cells [lower panel]; remark: listed apart in the source

T1 sequence (P07766 23-207, chain 1 of 3): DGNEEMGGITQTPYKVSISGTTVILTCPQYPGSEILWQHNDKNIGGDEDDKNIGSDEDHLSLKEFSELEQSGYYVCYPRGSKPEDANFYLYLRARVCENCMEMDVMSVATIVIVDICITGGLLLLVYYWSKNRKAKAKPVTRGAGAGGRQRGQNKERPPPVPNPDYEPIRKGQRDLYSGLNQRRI
T1 sequence (P04234 22-171, chain 2 of 3): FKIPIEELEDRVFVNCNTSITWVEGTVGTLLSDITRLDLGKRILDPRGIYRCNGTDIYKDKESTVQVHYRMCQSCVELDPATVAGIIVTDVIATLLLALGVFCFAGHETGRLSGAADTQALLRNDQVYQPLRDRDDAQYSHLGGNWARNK
T1 sequence (P09693 23-182, chain 3 of 3): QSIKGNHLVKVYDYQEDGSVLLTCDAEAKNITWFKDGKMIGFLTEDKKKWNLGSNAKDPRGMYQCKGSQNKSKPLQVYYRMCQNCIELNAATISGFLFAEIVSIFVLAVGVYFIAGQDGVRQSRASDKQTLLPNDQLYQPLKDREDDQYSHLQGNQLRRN

B1: PG3873 (antibody, V domains shown)
VH: QVQLVQSGGGVVQPGRSLRLSCVASGFTFSSYGMHWVRQAPGKGLEWVAAIWYQGRKQDYADSVKGRFTISRDNSKNTLYLQMNSLRAEDTAVYYCTRGTGYNWFDPWGQGTLVTVSS
VL: not shown
notes: Full length monoclonal IgG; also called MF3873 as IgG
B1: no binding (tested: 10 µg/ml) [1].

B2: 5196×4327 DM-Fc bsAb (bispecific antibody, V domains shown)
VH 1: QVQLVQSGGGVVQPGRSLRLSCVASGFTFSSYGMHWVRQAPGKGLEWVAAIWYNARKQDYADSVKGRFTISRDNSKNTLYLQMNSLRAEDTAVYYCTRGTGYNWFDPWGQGTLVTVSS
VH 2: QVQLVQSGAEVKKPGASVKVSCKASGYTFTSYYMHWVRQAPGQGLEWMGIINPSGGSTSYAQKFQGRVTMTRDTSTSTVYMELSSLRSEDTAVYYCAKGTTGDWFDYWGQGTLVTVSS
VL: not shown
notes: Full length bispecific IgG with the lower hinge/CH2 changes at positions 235-236 (DM-Fc; L235G, G236R) and CH3 heterodimerisation (KK/DE variants) as in WO2014/051433
In the case of B2, the “fold higher affinity of the CLEC12A arm than of the human CD3 binding arm” value [2] is reported as ~60 fold, the Kd [3] is reported as 3 nM and the binding result [4] is reported as “binds”.

B3: PG5648 (antibody, V domains shown)
VH: QVQLVQSGGGVVQPGRSLRLSCVASGFTFSSYGMHWVRQAPGKGLEWVAAIWYNARKQEYLDSVKGRFTISRDNSKNTLYLQMNSLRAEDTAVYYCTRGTGYNWFDPWGQGTLVTVSS
VL: not shown
notes: Monospecific IgG format; also called MF5648 in monospecific IgG format
B3: binds [5].

B4: PG5630 (antibody, V domains shown)
VH: QVQLVQSGGGVVQPGRSLRLSCVASGFTFSSYGMHWVRQAPGKGLEWVAAIWYNARKQDYADSVKGRFTISRDNSKNTLYLQMNSLRAEDTAVYYCTRGTGYNWYDPWGQGTLVTVSS
VL: not shown
notes: Monospecific IgG format; also called MF5630 in monospecific IgG format
B4: binds [5].

B5: PG5196 (antibody, V domains shown)
VH: QVQLVQSGGGVVQPGRSLRLSCVASGFTFSSYGMHWVRQAPGKGLEWVAAIWYNARKQDYADSVKGRFTISRDNSKNTLYLQMNSLRAEDTAVYYCTRGTGYNWFDPWGQGTLVTVSS
VL: not shown
notes: Full length monoclonal IgG; also called PG5196 mAb; MF5196 as IgG
B5: binds [6].

B6: PG3905 (antibody, V domains shown)
VH: QVQLVQSGGGVVQPGRSLRLSCVASGFTFSSYGMHWVRQAPGKGLEWVAAIWYGGRKQDYADSVKGRFTISRDNSKNTLYLQMNSLRAEDTAVYYCTRGTGYNWFDPWGQGTLVTVSS
VL: not shown
notes: Full length monoclonal IgG; also called MF3905 as IgG
B6: no binding (tested: 10 µg/ml) [1].

B7: PG5626 (antibody, V domains shown)
VH: QVQLVQSGGGVVQPGRSLRLSCVASGFTFSSYGMHWVRQAPGKGLEWVAAIWYNARKQEYRDSVKGRFTISRDNSKNTLYLQMNSLRAEDTAVYYCTRGTGYNWFDPWGQGTLVTVSS
VL: not shown
notes: Monospecific IgG format; also called MF5626 in monospecific IgG format
B7: binds [7].

B8: PG5354 (antibody, V domains shown)
VH: QVQLVQSGGGVVQPGRSLRLSCAASGFTFSGYGMHWVRQAPGKGLEWVAQIYYDGSRTYYADSVKGRFTISRDNSKNTLYLQMNSLRAEDTAVYYCTRGTGYNWFDPWGQGTLVTVSS
VL: not shown
notes: Monospecific IgG format; also called MF5354 in monospecific IgG format
B8: binds [8].

B9: PG5694 (antibody, V domains shown)
VH: QVQLVQSGGGVVQPGRSLRLSCVASGFTFSSYGMHWVRQAPGKGLEWVAAIWYNARKQEYSDSVKGRFTISRDNSKNTLYLQMNSLRAEDTAVYYCTRGTGYNWFDPWGQGTLVTVSS
VL: not shown
notes: Monospecific IgG format; also called MF5694 in monospecific IgG format
B9: binds [5].

B10: PG5603 (antibody, V domains shown)
VH: QVQLVQSGGGVVQPGRSLRLSCVASGFTFSSYGMHWVRQAPGKGLEWVAAIWYNARKQEYIDSVKGRFTISRDNSKNTLYLQMNSLRAEDTAVYYCTRGTGYNWFDPWGQGTLVTVSS
VL: not shown
notes: Monospecific IgG format; also called MF5603 in monospecific IgG format
B10: binds [5].

B11: PG5351 (antibody, V domains shown)
VH: QVQLVQSGGGVVQPGRSLRLSCAASGFTFSSYGMHWVRQAPGKGLEWVAMIWYDGKNTYYADSVKGRFTISRDNSKNTLYLQMNSLRAEDTAVYYCTRGTGYNWFDPWGQGTLVTVSS
VL: not shown
notes: Monospecific IgG format; also called MF5351 in monospecific IgG format
B11: binds [9].

B12: PG5616 (antibody, V domains shown)
VH: QVQLVQSGGGVVQPGRSLRLSCVASGFTFSSYGMHWVRQAPGKGLEWVAAIWYNARKQEYNDSVKGRFTISRDNSKNTLYLQMNSLRAEDTAVYYCTRGTGYNWFDPWGQGTLVTVSS
VL: not shown
notes: Monospecific IgG format; also called MF5616 in monospecific IgG format
B12: binds [7].

B13: PG5356 (antibody, V domains shown)
VH: QVQLVESGGGVVQPGRSLRLSCAASGFTFSKYGMHWVRQAPGKGLEWVAQIWHDGRKTYYADSVKGRFTISRDNSKNTLYLQMNSLRAEDTAVYYCTRGTGYNWFDPWGQGTLVTVSS
VL: not shown
notes: Monospecific IgG format; also called MF5356 in monospecific IgG format
B13: binds [9].
